Reference: US20210214734A1, “METHODS FOR SELECTIVELY INHIBITING MOLECULAR CHAPERONE CLIENTS AND COMPOSITIONS FOR USE THEREOF” (Research Foundation for the State University of New York, priority 2020, published 2021)
Where no end group is shown, it is not given here. [ ]: non-standard residue; d: D form. Phe(4-F) = N[C@@H](Cc1ccc(F)cc1)C(=O)O

Key:
[1] = system: full length human Hsp90; assay: 19F NMR R2 filter binding to Hsp90; parameters: 19F NMR signal change in presence of Hsp90 (binding): dose or concentration left out as unconfirmed; conditions: for 19F NMR signal change in presence of Hsp90 (binding): 19F R2 filter, peptides tested individually, A01
Method: (§1) All the NMR experiments have been recorded at 298° K with a Bruker FT NMR Avance III 600-MHz spectrometer equipped with a 5-mm CryoProbe™ QCI^1H/^19F-^13C/^15N-D quadruple resonance, a shielded z-gradient coil, and the automatic sample handling system such as a SAMPLEJET™ brand sampling system with temperature control.
(§2) ^19F NMR experiments are a well-recognized approach to study the interaction between small molecules or peptides and proteins. […] This is due to the large dynamic range defined as the difference of the NMR measured response in the free and protein-bound states. ^19F R2 filter NMR experiments are among the most sensitive techniques for weak binding detection. See Dalvit et al., Journal of American Chemical Society, 125, 7696-7703 (2003). The transverse relaxation rate R2 is a very sensitive parameter for these studies, due to the large Chemical Shift Anisotropy (CSA) of ^19F nucleus and to the large exchange contribution See Dalvit et al., Journal of American Chemical Society, 125, 7696-7703 (2003); the compounds/peptides that interact with the receptor will show a broadening and intensity reduction in their ^19F NMR signal in presence of the protein
(§3) The 5 mM stock solution peptides were prepared in 100% in DMSOd6. Solubility and purity of the peptides in PBS buffer pH 7.4, 10% D2O (for the lock signal) were checked by ^19F and ^1H NMR spectroscopy. 1D ^19F NMR experiments were recorded with proton decoupling with the Waltz-16 scheme during the acquisition period with an acquisition time of 0.95 s, a relaxation delay of 30 s. whereas 1D version of the NOESY (nuclear Overhauser effect spectroscopy) pulse sequence with H2O signal presaturation, a mixing time of 10 ms and a relaxation delay of 30 s was used for ^1H NMR experiments.
(§4) For the binding studies R2 filter experiments were recorded with the Carr-Purcell-Meibom-Gill scheme with a time interval of 23.5 ms between the 180° pulses with a loop of 2, an acquisition time of 0.95 s a D1 of 5 s and a number of scans of 512. All the ^19F chemical shifts are referenced to the CFCl3 signal in water.

[2] = target: Human Serum Albumin (HSA) (Homo sapiens, UniProt P02768); assay: 19F NMR control for non-specific binding to HSA; conditions: 40 mM A01, A02 with 10 mM HSA
Method: as §1, §2, §3, §4

[3] = system: c-Abl; assay: c-Abl protein level by immunoblot in treated HEK293 cells; assay type: cell-based, human; conditions: 10 μM A01 or A02 with and without TAT, 36 hours
Method: (§5) Human embryonic kidney (HEK293) and 786-O cells were acquired from the American Type Culture Collection (ATCC). HEK293 cells were grown in Dulbecco's Modified Eagle Medium (DMEM, Millipore-Sigma) and 786-O cells were grown in Roswell Park Memorial Institute (RPMI-1640, Millipore-Sigma) medium supplemented with 10% fetal bovine serum (FBS, Millipore-Sigma) in a CellQ incubator (Panasonic Healthcare) at 37° C. in 5% CO2.
(§6) Cultured cells were seeded 24 h prior to treatment. […]
(§7) Protein extraction from mammalian cells was carried out using methods previously described. See Woodford et al., Cell Reports, 14, 872-884 (2016). For immunoprecipitation, protein lysates were incubated with Hsp90 antibody for 2 h followed by incubation with protein G agarose (Qiagen) for 2 h at 4° C. Immunopellets were washed 4 times with fresh lysis buffer (20 mM Tris (pH7.4), 100 mM NaCl, 1 mM MgCl2, 0.1% NP40, protease inhibitor cocktail (Roche), and PhosSTOP (Roche)) and eluted with 5× Laemmli buffer. Precipitated proteins were separated by SDS-PAGE and transferred to nitrocellulose membranes. Co-immunoprecipitated proteins were detected by immunoblotting with the indicated antibodies, diluted in 5% non-fat dry milk reconstituted in TBST.

[4] = system: c-Abl-Hsp90 interaction; assay: Hsp90 immunoprecipitation, c-Abl association in HEK293 cells; assay type: cell-based, human; conditions: 10 μM, 36 hours, IP of endogenous Hsp90
Method: as §5, §6, §7

[5] = system: c-Src; assay: Immunoblot of unrelated client c-Src in HEK293 cells; assay type: cell-based, human; conditions: 10 μM, 36 hours, selectivity control
Method: as §5, §6, §7

[6] = system: Cdk4; assay: Immunoblot of unrelated client Cdk4 in HEK293 cells; assay type: cell-based, human; conditions: 10 μM, 36 hours, selectivity control
Method: as §5, §6, §7

[7] = system: Akt; assay: Immunoblot of unrelated client Akt in HEK293 cells; assay type: cell-based, human; conditions: 10 μM, 36 hours, selectivity control
Method: as §5, §6, §7

[8] = system: Aha1-Hsp90 complex; assay: Hsp90 immunoprecipitation, Aha1-Hsp90 complex in HEK293 cells; assay type: cell-based, human; conditions: 10 μM, 36 hours
Method: as §5, §6, §7

[9] = target: Hsp90α-FLAG (Homo sapiens, UniProt P07900); assay: Biotinylated peptide streptavidin pulldown of Hsp90α; assay type: binding; conditions: Hsp90α vs Hsp90β; biotinylated peptide pulldown
Method: Total cell lysates prepared as described above were incubated with the indicated amounts of biotinylated peptide at 4° C. for 1 h. Streptavidin agarose beads (ThermoScientific) were added and incubated 1 additional hour with gentle rotation. Bound Hsp90 was detected by immunoblotting as described herein.

[10] = target: T1, Cdc37 (Homo sapiens, UniProt Q16543); assay: 19F NMR R2 filter binding to Cdc37; parameters: dose or concentration left out as unconfirmed
T1 sequence (Q16543 1-378): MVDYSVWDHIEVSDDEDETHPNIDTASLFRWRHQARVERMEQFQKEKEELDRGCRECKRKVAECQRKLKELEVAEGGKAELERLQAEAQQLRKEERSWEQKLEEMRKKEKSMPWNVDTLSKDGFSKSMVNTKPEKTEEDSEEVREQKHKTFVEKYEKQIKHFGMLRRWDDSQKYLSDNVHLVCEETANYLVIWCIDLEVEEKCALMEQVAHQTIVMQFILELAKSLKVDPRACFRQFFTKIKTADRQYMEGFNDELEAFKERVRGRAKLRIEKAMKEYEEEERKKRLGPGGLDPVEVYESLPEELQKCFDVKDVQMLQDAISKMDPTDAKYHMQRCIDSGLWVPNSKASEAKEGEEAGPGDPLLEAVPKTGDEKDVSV
Method: as §1, §2, §3, §4

[11] = target: T2, Human Serum Albumin (human, UniProt P02768 25-609); assay: 19F NMR
T2 construct: also called HSA

[12] = target: T3, Aha1 (UniProt O95433 1-338, limits assumed); assay: 19F NMR R2 filter
T3 construct: Protein used in the 19F NMR experiments
T3 sequence (O95433 whole entry): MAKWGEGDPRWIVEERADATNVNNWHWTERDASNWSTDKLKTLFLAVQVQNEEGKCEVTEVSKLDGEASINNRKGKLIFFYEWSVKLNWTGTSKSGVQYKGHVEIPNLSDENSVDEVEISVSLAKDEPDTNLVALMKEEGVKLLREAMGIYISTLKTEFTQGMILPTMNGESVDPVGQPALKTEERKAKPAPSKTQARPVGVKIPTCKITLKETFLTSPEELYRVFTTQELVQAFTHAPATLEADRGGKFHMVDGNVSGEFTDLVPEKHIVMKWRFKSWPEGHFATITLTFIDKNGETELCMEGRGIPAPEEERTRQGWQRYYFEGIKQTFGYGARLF

F(F)GGSPYPGIDLSQVYELLEK ([Phe(4-F)]GGSPYPGIDLSQVYELLEK) [A02]
binding to Hsp90 when A01 and A02 are mixed ([1]; 19F NMR, peptides mixed): continue to bind to Hsp90 even when they are mixed | 19F NMR signal change in presence of Hsp90 (binding) [1]: decrease in the presence of Hsp90, indicating peptide-protein binding | binding interaction with HSA by 19F NMR [2]: neither A01 nor A02 showed binding interaction with HSA | binding interaction with HSA by 19F NMR ([2]; listed as AblO2): do not interact with HSA | c-Abl protein levels [3]: decrease of c-Abl protein levels | dissociation of c-Abl from Hsp90 [4]: dissociation of c-Abl from Hsp90 | c-Src stability or activity [5]: neither the related kinase c-Src nor the client kinases Cdk4 or Akt showed a defect in stability or activity | Cdk4 stability or activity [6]: neither the related kinase c-Src nor the client kinases Cdk4 or Akt showed a defect in stability or activity | Akt stability or activity [7]: neither the related kinase c-Src nor the client kinases Cdk4 or Akt showed a defect in stability or activity | Aha1-Hsp90 complex formation [8]: decreased Aha1-Hsp90 complex formation | Hsp90 isoform specificity [9]: neither peptide demonstrates isoform specificity

FGTVYKGKWGGGGF(F)STKPQLAGGGNVTAPTPQ (FGTVYKGKWGGGG[Phe(4-F)]STKPQLAGGGNVTAPTPQ) [B-Raf-02]
19F NMR signal change in presence of Hsp90 (binding) [1]: no or very weak interaction | binding to Cdc37 by 19F NMR [10]: bound to Cdc37 | binding interaction with HSA by 19F NMR [2]: no interactions were detected | binding interaction with HSA by 19F NMR ([2]; listed as Braf02-pep): do not interact with HSA

GYSTKPQLAGGGNVTAPTPQG[Phe(4-F)]QHSGS (also called Braf01-pep) [B-Raf-01]
binding result [11]: no binding

[Phe(4-F)]GGSPYPGIDLSQVYELLEK (also called peptide A02; Abl02) [A02]
binding result [11]: no binding (tested: 40 mM A02 with 10 mM HSA)

LGGGQ[Phe(4-F)]GEVYGGVAVKTLGGGEFLDEAAVMK (also called peptide A01; Abl01) [A01]
binding result [11]: no binding (tested: 40 mM A01 with 10 mM HSA) | binding result [12]: no binding (tested: 10 mM of each cAbl peptide)

FGTVYKGKWGGGG[Phe(4-F)]STKPQLAGGGNVTAPTPQ (also called Braf02-pep) [B-Raf-02]
binding result [11]: no binding
